# Experimental data taken from the DeepSol protein solubility set.
# Test: soluble on expression in E. coli; label from the status in PepcDB or PDB records
row,Sequence,soluble on expression in E. coli
1,MNHVAVIGGGIIGASWAVVFARRGLEVTIVERDAACLAGLPARLAGMIERSASLLGAGEQPGDVAARIGATDALAAAVGRADYVQEAVSENLALKRTLFAELDALAPAHALLASSTSTYGASQFTEALAGRARCLVAHPMTPPHLSPVVEMAASAWTDPQVLAGAEAFMRSLGQHPVRIRKEIPGFVLNRLQGALLMEMFRVIADDVISPADADALISQGLGLRWATLGPLEGVDLNAPGGIADYLQRYGHIFNDMAVGQGLPAPVDAELISALDGAMRAALPLERLEAKRGWRDRAIAGVRVALHDYTGEKPLEHHHHHH,not soluble
2,MNIAIGTTQDRALYEDALRVRRLVFIEEQNVPEDEEIDAFEDDSFHLVLYDGQTPVGAGRLRFIDEGVGKIERICVLPSYRGRGAGRMVMEAIEQLAKTKGAKTAKLNAQTHAEPFYQKLGYTTVSGVFMDAGIPHVTMVKSLE,soluble
3,MNIDSDIFKIQSNNVLPSRGKILISEPFLRDATFGRSVVLLIDHTEEGSMGLIINKQLPIFVNDIIKEFKYIENIPLYKGGPIATDTLFYLHTLADIPGAIPISKGLYLNGDFDEIKKYILQGNKVDRYIRFFLGYSGWESEQLSTELKENTWLVSKEENAYLMNGDTKDMWKQALEKLGSKYETWSRFPQVPTFNLEHHHHHH,soluble
4,MNIGIIGTGNMGNILIDAFLETRAVKPSCLTIINRTPAKAYHIKEKYPSVHIAKTIPEVIEQSQLIFICVKPIDIYPILKKYAEHFSDETCLVSITSPISPSQLETLVPCHVARIIPSITNRALSGASLFTFGDNCSEEWQQKLLRLFKNISTPLVIEEDITRVSSDIASCGPAFFSYLLQCFINAAVDKTNITHEEATTLVSEMVVGMGKLLEKEIFTLPTLQEKVCVKGGVTGEGIRVLEEHVGDMFHKLIERTHEKFDEDLECVDQQFNKHTLEHHHHHH,soluble
5,MNIGKPRKLGKTIEDIEEGDSLSLTESIEDKDLLLYLGLTNDANPLYIQHDYAQKTEYEKPIVPSIMLMGIITSAISKHLPGPGSHVVNFSVNFVEPVFHYETLTFQLEVIKVDKMKDVITISVEAVNEQENRVLDAVVMVQPPQVTIDELTEKEGTLTYE,soluble
6,MNIIDFNKPVKRSFRGNTAPAPPLEKVLTVILKTDVPVLMGICSDGLRSNSAILGGEFQAEYFSGSVLSGGGNVLVELSSELAFLETRFTLITQLGELINVECKGVLLMDEEGQQELQSGVWPISEGHYQCTCTPRFQVSLGPNDWLEKSAFIGKIDYIQRNETLISFYRMKL,not soluble
7,MNIIDFRFRPNTEAILKGISSNPAFKGMCQSIDFNKMLPQTLEEVVEELDRHHVVKAVISGRDCETTYGAKSNNPSVIEFCHKFPDKFIGFAGLDPHKGMAALAEITHAVHEEGIKGAAIDPYLARIYVNDAKYYPIYAKCCELGIPLIIATGPGTLVPNAVIDHVAPRYIDFVARDFPELKIIASHGGYPWVNEMITVAQRNANVYLELSEYEFFPQSSAYIEAANSILSDKIMYASAHPFVDFKLALKNYEQLPLKPEVREKVMYKNAAKVLGLSDGTFSASKAMDAQEVQMIIENVIAQLSQRGLLANR,not soluble
8,MNIKKLAILGTLATTFSFEAFASTGMPKIEELTGDTRTACEVILCLSSAQGRGIKECQAPLRKYFSIRAKKWHKTLAKRRAFLDLCPAANENAKMSALTTAIQHQEYACDAGTLNSRTETRRNWVRRSSEDGGSFSRRLVRTQAYIPDFCKALYDHEFTEYKQIQKPKYVCDANKWYSQADWNRGFERVEVSRKWNHREDRYDIQYKDVPIKKDCWELEHHHHHH,not soluble
9,MNIQHNLNLIQQKIETACKEENRNQNTVKLLAVSKTKPISAILSAYQAGQTAFGENYVQEGVEKIQYFESQGINLEWHFIGPLQSNKTRLVAEHFDWMQTLDRAKIADRLNEQRPTNKAPLNVLIQINISDEESKSGIQPEEMLTLAKHIENLPHLCLRGLMAIPAPTDNIAEQENAFRKMLELFEQLKQVLPNQQIDTLSMGMTDDMPSAIKCGSTMVRIGTAIFGARNYSTSQNK,not soluble
10,MNITNEREDGEKMGSKNYTDVLIAGKIYTLGGLEEETYLQQVASYLNDKIAGLHRQDGFRKQPEDYQNVMTYLNIADDYFKEREHAGLLAVQKEELEKETYRLKHELVSTQMKLEAMRAELEKYKALETLEHSRGKEAEKEEQARK,soluble
11,MNKFFSADKKGGEKRRKKSKKKVRIVGMSEIGIWRQDDTMRIVHLSVWCILKRTTASLSGNEWKLSTRHANDGYIVRSPPTISGPERLQENGYVIWILL,not soluble
12,MNKGQRHIKIREIITSNEIETQDELVDMLKQDGYKVTQATVSRDIKELHLVKVPTNNGSYKYSLPADQRFNPLSKLKRALMDAFVKIDSASHMIVLKTMPGNAQAIGALMDNLDWDEMMGTICGDDTILIICRTPEDTEGVKNRLLELL,soluble
13,MNKLAVLYAEHIATLQKRTREIIERENLDGVVFHSGQAKRQFLDDMYYPFKVNPQFKAWLPVIDNPHCWIVANGTDKPKLIFYRPVDFWHKVPDEPNEYWADYFDIELLVKPDQVEKLLPYDKARFAYIGEYLEVAQALGFELMNPEPVMNFYHYHRAYKTQYELACMREANKIAVQGHKAARDAFFQGKSEFEIQQAYLLATQHSENDNPYGNIVALNENCAILHYTHFDRVAPATHRSFLIDAGANFNGYAADITRTYDFTGEGEFAELVATMKQHQIALMNQLAPGKLYGELHLDCHQRVAQTLSDFNIVDLSADEIVAKGITSTFFPHGLGHHIGLQVHDVGGFMADEQGAHQEPPEGHPFLRCTRKIEANQVFTIEPGLYFIDSLLGDLAATDNNQHINWDKVAELKPFGGIRIEDNIIVHEDSLENMTRELRLRLTTHSLRGLSAPQFSINDPAVMSEYSYPSEPLSYEEEIKKSTFIVHVRTRRILVRRRTLSPILIAVTPMPAITAGLM,soluble
14,MNKNKPFIVVIVGPTASGKTELSIELAKRINGEIISGDSMQVYKHMNIGTAKVTPEEMDGIPHHLIDILNPDDTFSAYEFKRLAEDLITDITNRGKVPIIAGGTGLYIQSLIYNYELEDETVTPAQLSIVKQKLSALEHLDNQQLHDYLAQFDAVSAENIHPNNRQRVLRAIEYYLKTKKLLSNRKKVQQFTENYDTLLLGIEMSRKTLYSRINKRVDIMLDHGLFREVQQLVEQGYESCQSMQAIGYKELIPVINGQMIYEDAVNDLKQHSRQYAKRQMTWFKNKMSVHWLDKENMSLQMMLDEITTQIKMAGDPLEHHHHHH,not soluble
15,MNKNSTSNKKNSKNKKKVDKLDLILNEFKNDIKNEKGENNQNDNKLLNGAIETNNNNNNNNNNSGNNRIHFDKEEIKEIKKKIILKEHVLEEQDNSSIRLLKNWPQLEKTYQTNPPCIPIDMIYGKDGKYPVGEILEYNNYNLSGQSLVEKKEREKLSIDYYEDLRKAAECHRQVRKHMQAFIKPGKKMIDIAQETERKTKELILAEKLKCGWGFPTGCSLNHCAAHYTPNYGDETVLKYDDVCKLDFGVHVNGYIIDCAFTIAFNEKYDNLIKATQDGTNTGIKEAGIDARMCDIGEAIQEAIESYEIELNQKIYPIKAISNLRGHSINKYIIHGGKCVPIVRQKEKNEIMEEGELFAIETFASTGKGYVNHENECSHYMRNPEKQFVPIRLNSAKTLLKVINDNFDTLPFCNRWLDDLGQTRHFMALKTLIDLNIVEPYPPLCDIKNSFTSQMEHTILLRPTCKEVLSRG,not soluble
16,MNKNVMVKGLTALTILTILTSLGFAENISNQPHSIAKAEKNVKEITDATKEPYNSVVAFVGGTGVVVGKNTIVTNKHIAKSNDIFKNRVSAHHSSKGKGGGNYDVKDIVEYPGKEDLAIVHVHETSTEGLNFNKNVSYTKFADGAKVKDRISVIGYPKGAQTKYKMFESTGTINHISGTFMEFDAYAQPGNSGSPVLNSKHELIGILYAGSGKDESEKNFGVYFTPQLKEFIQNNIEK,not soluble
17,MNKQLTTIGIMASLFATSSFATDWTQIEKEAQGQTVYFHAWGGSQEINHYLQWANKELQSKYQVTLKHVKVSDISETIPRLIAEKAADKNTNGSVDMVWINGENFKSMKDNQLLFGPFTENLPSWKYVDKMLPIDVDFSEPTDGLEAPWGVGQLVFIHDSENLTNPPHSFAEMLSYAQKKPNSLSYPRPPEFHGTSVLKSMLIELTNNNPALQKPVSESDFNAVTAPLWDYLEKFHKVAWRGGKQFPAGTSETIQLLDDGQLDLAVTFNPNAVYSAQANGNLANTTKAYAMDSGALSNIHFLAIPWNAKASAGAQVAINFLLSPEAQSRKGDLNVWGDPSVLSSKYLTGSAKNTQQFKSVSEPHPSWQAAIEKEWLKRFGS,soluble
18,MNKSRVVVGMSGGVDSSVAALLLKQQGYDVTGLFMKNWEEDDTDEYCSSRQDFLDAASVADILDIPLEVVNFSTEYRERVFNLFLKEYQAGRTPNPDVLCNSEIKFRAFLDHALNLGADWIATGHYAQVHETDGLFQLLKGEDGNKDQSYFLYRLNQQQLSHTIFPIGHLYKREVRKIAREHRLPNSTKKDSTGICFIGERPFREFLNRYLPANPGEIHTLDDQVVGEHLGVMYYTIGQRQGLGIGGTRQGSEQPWFVSGKDIKKNVLYVVQGHDHPALLRSSLTAADLSWISGTPPHQNWVYAAKIRYRQTDAPCAITHFEHDSCQIGFAAPQWGITPGQSVVVYESKVCLGGGVIIGSNDLEHHHHHH,not soluble
19,MNLASQISQAKTGNATMEWAKNYVSKLNDGQLALLQKMYADHQAKLKASEDEKKKKEMEELKMKAQQQAILDSLTQQIPIMVDVLRSSTSPDSQPSSSSSVMSSTDEDQITVKDVLIGKINKAQRQSSPNSSKPYTPRGIRERVLFDEHLYVFDKCSYDSKKRFFRCERKNTCPARIHTPFDAERVIHKVQVHNHPPPTTFDLAHYNIDYGKVKSGHILSLNGPQQTKNLLPPSLLTPKSDLEDETLSTKTEQKNASTMNILLSMTNNCDGRKPITLRLPDLFNKISEMEIHDMEMTLTKFLLENRELRTDLISRNGDLPVFFPNAHNDELVLFVADQHENDSVFQMIRVSERNEKSIRQAIQEHLQKVSNRSLMMNISSKINVPLSQQMIDQWRTEEFIRLDSSKPNFWKIHHVSKLQD,not soluble
20,MNLDDIINSMTPEVYQRLSTAVELGKWPDGVALTEEQKENCLQLVMLWQARHNTEAQHMTIDTNGQMVMKSKQQLKEDFGISAKPIAMFK,not soluble
21,MNLPSKFHQVTITDPIAGAGITFTIPTRYVNLKFLNVGAQGIVVMADDLVTTQRVAIKKMQQPFLLTMSARRAYREFILLTTLKHPNIIRLLNAFTPDTSLSSFQEVYLVMEFMTHNLHEVIHRLRLDHETLSFLVYQSLCAIKHLHNLGFIHRDLKPSNIVVNERCVLKVLDFGLARRRNVDMRMSDYVGTRYYRAPEVILGLNYSEKVDIWSVGCILAEMINHTVLFPGKDIRDQWTQISSVLRTPDDHFINQLEPIGAVYVRSLPQHLARAFNEIVPDSNFLPETENPKDHLTLHMARDLLFNMLKINPEERYSVEDALNHPYTMVQGR,not soluble
